Laboratory results taken from the supplement of paper PMC9112550, “Optimization of the antimicrobial peptide Bac7 by deep mutational scanning” (BMC Biology, 2022).

Test system: Escherichia coli TOP10
Assay: shrunken log2 fold change of peptide-encoding DNA abundance (4.5 h post-induction vs induction); higher = less antimicrobial activity (less host growth inhibition)
Details: time post-induction: 4.5 h; library: site-saturation at positions 5, 18, 19, 20
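Also: peptides expressed intracellularly from a pBAD plasmid library in pooled LB shake-flask culture, induced with 0.3% L-arabinose, DNA abundance read by NGS, three biological replicates, DESeq2 with apeglm shrinkage.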

Row | Sequence | shrunken log2 fold change
1 | RRIRCRPPRLPRPRPRPISRPRP | -0.503
2 | RRIRQRPPRLPRPRPRPMNWPRP | -0.0581
3 | RRIRFRPPRLPRPRPRPLHRPRP | 0.136
4 | RRIRHRPPRLPRPRPRPHAAPRP | 0.292
5 | RRIRWRPPRLPRPRPRPGWLPRP | 0.375
6 | RRIRLRPPRLPRPRPRPYPAPRP | -0.368
7 | RRIRRRPPRLPRPRPRPRQRPRP | 0.636
8 | RRIRKRPPRLPRPRPRPGRFPRP | 0.227
9 | RRIRRRPPRLPRPRPRPQVDPRP | 0.237
10 | RRIRYRPPRLPRPRPRPHCVPRP | -0.0324
11 | RRIRIRPPRLPRPRPRPMFMPRP | -0.383
12 | RRIRQRPPRLPRPRPRPNENPRP | -0.0578
13 | RRIRCRPPRLPRPRPRPWDRPRP | -0.608
14 | RRIRERPPRLPRPRPRPKLWPRP | 0.582
15 | RRIRCRPPRLPRPRPRPIRMPRP | -0.339
16 | RRIRNRPPRLPRPRPRPAWVPRP | 0.147
17 | RRIRQRPPRLPRPRPRPTSRPRP | -0.0729
18 | RRIRCRPPRLPRPRPRPPLEPRP | 0.186
19 | RRIRPRPPRLPRPRPRPFYHPRP | -0.547
20 | RRIRMRPPRLPRPRPRPFCLPRP | -0.15
21 | RRIRDRPPRLPRPRPRPNWGPRP | 0.061
22 | RRIRTRPPRLPRPRPRPGTDPRP | -0.253
23 | RRIRIRPPRLPRPRPRPIWHPRP | -0.455
24 | RRIRERPPRLPRPRPRPSQNPRP | -0.267
25 | RRIRVRPPRLPRPRPRPWYHPRP | -0.209

Row | Sequence | shrunken log2 fold change
26 | RRIRQRPPRLPRPRPRPKCLPRP | 0.0772
27 | RRIRARPPRLPRPRPRPCSFPRP | 0.134
28 | RRIRKRPPRLPRPRPRPDEKPRP | 0.411
29 | RRIRVRPPRLPRPRPRPCDMPRP | -0.448
30 | RRIRQRPPRLPRPRPRPVDAPRP | -0.0176
31 | RRIRTRPPRLPRPRPRPDDYPRP | -0.111
32 | RRIRNRPPRLPRPRPRPYDFPRP | 0.0143
33 | RRIRPRPPRLPRPRPRPGISPRP | -0.155
34 | RRIRNRPPRLPRPRPRPKWIPRP | 0.0111
35 | RRIRQRPPRLPRPRPRPTPKPRP | 1.53
36 | RRIRRRPPRLPRPRPRPMNCPRP | -0.0277
37 | RRIRNRPPRLPRPRPRPYITPRP | -0.292
38 | RRIRTRPPRLPRPRPRPCQCPRP | -0.195
39 | RRIRYRPPRLPRPRPRPHCTPRP | -0.372
40 | RRIRVRPPRLPRPRPRPMEAPRP | 0.0665
41 | RRIRNRPPRLPRPRPRPMESPRP | -0.0333
42 | RRIRRRPPRLPRPRPRPMNGPRP | -0.0419
43 | RRIRQRPPRLPRPRPRPPAKPRP | 0.358
44 | RRIRIRPPRLPRPRPRPNHGPRP | -0.413
45 | RRIRGRPPRLPRPRPRPSQVPRP | 0.235
46 | RRIRWRPPRLPRPRPRPRTRPRP | 0.755
47 | RRIRNRPPRLPRPRPRPGFNPRP | -0.207
48 | RRIRPRPPRLPRPRPRPNTSPRP | -0.237
49 | RRIRDRPPRLPRPRPRPCSSPRP | 0.187
50 | RRIRARPPRLPRPRPRPDTWPRP | 1.13

Row | Sequence | shrunken log2 fold change
51 | RRIRSRPPRLPRPRPRPMLKPRP | -0.0793
52 | RRIRQRPPRLPRPRPRPFYAPRP | -0.0278
53 | RRIRNRPPRLPRPRPRPGNAPRP | 0.0258
54 | RRIRKRPPRLPRPRPRPSKCPRP | -0.388
55 | RRIRYRPPRLPRPRPRPNQVPRP | -0.0141
56 | RRIRNRPPRLPRPRPRPIFTPRP | -0.424
57 | RRIRRRPPRLPRPRPRPMCIPRP | -0.182
58 | RRIRQRPPRLPRPRPRPLCAPRP | 0.172
59 | RRIRHRPPRLPRPRPRPMLWPRP | 0.0253
60 | RRIRDRPPRLPRPRPRPCIPPRP | -0.123
61 | RRIRPRPPRLPRPRPRPWCRPRP | 0.0933
62 | RRIRWRPPRLPRPRPRPWTDPRP | -0.0932
63 | RRIRVRPPRLPRPRPRPLVMPRP | -0.902
64 | RRIRYRPPRLPRPRPRPDNIPRP | 0.0653
65 | RRIRKRPPRLPRPRPRPFGPPRP | 0.325
66 | RRIRIRPPRLPRPRPRPHPEPRP | -0.023
67 | RRIRPRPPRLPRPRPRPLEDPRP | 0.492
68 | RRIRHRPPRLPRPRPRPFKWPRP | -0.0376
69 | RRIRWRPPRLPRPRPRPPFYPRP | -0.00501
70 | RRIRYRPPRLPRPRPRPNWPPRP | 0.394
71 | RRIRKRPPRLPRPRPRPCTYPRP | 0.0972
72 | RRIRVRPPRLPRPRPRPYQRPRP | -0.0149
73 | RRIRARPPRLPRPRPRPYIVPRP | -0.882
74 | RRIRNRPPRLPRPRPRPGGCPRP | 0.203
75 | RRIRNRPPRLPRPRPRPSWMPRP | -0.487

Row | Sequence | shrunken log2 fold change
76 | RRIRTRPPRLPRPRPRPFWRPRP | 0.112
77 | RRIRMRPPRLPRPRPRPHHRPRP | -0.0556
78 | RRIRNRPPRLPRPRPRPTKNPRP | -0.0348
79 | RRIRNRPPRLPRPRPRPQDHPRP | -0.33
80 | RRIRYRPPRLPRPRPRPGIPPRP | -0.193
81 | RRIRVRPPRLPRPRPRPHIAPRP | -0.235
82 | RRIRVRPPRLPRPRPRPKNSPRP | -0.34
83 | RRIRNRPPRLPRPRPRPYCRPRP | -0.982
84 | RRIRVRPPRLPRPRPRPYPMPRP | -0.299
85 | RRIRARPPRLPRPRPRPKMHPRP | 0.364
86 | RRIRARPPRLPRPRPRPNYLPRP | 0.00106
87 | RRIRNRPPRLPRPRPRPHCFPRP | -0.641
88 | RRIRCRPPRLPRPRPRPCYLPRP | -0.684
89 | RRIRYRPPRLPRPRPRPTNTPRP | -1.15
90 | RRIRLRPPRLPRPRPRPIRMPRP | -0.0243
91 | RRIRARPPRLPRPRPRPQTQPRP | 0.628
92 | RRIRMRPPRLPRPRPRPTENPRP | 0.772
93 | RRIRNRPPRLPRPRPRPYFKPRP | -0.363
94 | RRIRFRPPRLPRPRPRPYFDPRP | -0.489
95 | RRIRQRPPRLPRPRPRPEMFPRP | -0.118
96 | RRIRGRPPRLPRPRPRPMPIPRP | 0.0958
97 | RRIRTRPPRLPRPRPRPWVRPRP | 0.0999
98 | RRIRSRPPRLPRPRPRPPYGPRP | -0.401
99 | RRIRQRPPRLPRPRPRPPVPPRP | 0.197
100 | RRIRCRPPRLPRPRPRPYVMPRP | -0.633

Row | Sequence | shrunken log2 fold change
101 | RRIRKRPPRLPRPRPRPGTLPRP | 0.0624
102 | RRIRYRPPRLPRPRPRPYSQPRP | -0.505
103 | RRIRERPPRLPRPRPRPSSMPRP | -0.284
104 | RRIRARPPRLPRPRPRPDFLPRP | 0.257
105 | RRIRRRPPRLPRPRPRPTTEPRP | 0.0681
106 | RRIRVRPPRLPRPRPRPKTRPRP | 0.63
107 | RRIRARPPRLPRPRPRPDFDPRP | 1.07
108 | RRIRKRPPRLPRPRPRPFMQPRP | -0.0285
109 | RRIRQRPPRLPRPRPRPNFCPRP | 0.117
110 | RRIRGRPPRLPRPRPRPVFLPRP | -0.0506
111 | RRIRGRPPRLPRPRPRPGEGPRP | 1.15
112 | RRIRTRPPRLPRPRPRPSTKPRP | -0.145
113 | RRIRVRPPRLPRPRPRPVDVPRP | -0.106
114 | RRIRRRPPRLPRPRPRPHNGPRP | -0.172
115 | RRIRLRPPRLPRPRPRPYFDPRP | -0.255
116 | RRIRIRPPRLPRPRPRPDPPPRP | 0.075
117 | RRIRPRPPRLPRPRPRPPHIPRP | 0.806
118 | RRIRHRPPRLPRPRPRPQNEPRP | -0.133
119 | RRIRLRPPRLPRPRPRPVQKPRP | 0.113
120 | RRIRFRPPRLPRPRPRPMPMPRP | -0.00868
121 | RRIRSRPPRLPRPRPRPVANPRP | 0.152
122 | RRIRWRPPRLPRPRPRPNKSPRP | 0.0866
123 | RRIRSRPPRLPRPRPRPDAPPRP | 0.49
124 | RRIRYRPPRLPRPRPRPFDWPRP | -0.122
125 | RRIRRRPPRLPRPRPRPCLTPRP | 0.0744

Row | Sequence | shrunken log2 fold change
126 | RRIRRRPPRLPRPRPRPGQPPRP | 0.262
127 | RRIRLRPPRLPRPRPRPWSCPRP | -0.136
128 | RRIRWRPPRLPRPRPRPPCLPRP | 0.186
129 | RRIRIRPPRLPRPRPRPIHNPRP | -0.936
130 | RRIRWRPPRLPRPRPRPTNQPRP | 0.018
131 | RRIRLRPPRLPRPRPRPRMKPRP | -0.00259
132 | RRIRIRPPRLPRPRPRPVHLPRP | -0.0973
133 | RRIRIRPPRLPRPRPRPQVAPRP | -0.333
134 | RRIRVRPPRLPRPRPRPELKPRP | -0.341
135 | RRIRKRPPRLPRPRPRPWWFPRP | -0.0467
136 | RRIRRRPPRLPRPRPRPFVSPRP | -0.0868
137 | RRIRPRPPRLPRPRPRPKAKPRP | 0.131
138 | RRIRDRPPRLPRPRPRPSSIPRP | 0.0533
139 | RRIRLRPPRLPRPRPRPTFGPRP | -0.0654
140 | RRIRKRPPRLPRPRPRPGHPPRP | 0.943
141 | RRIRFRPPRLPRPRPRPQHDPRP | -0.394
142 | RRIRSRPPRLPRPRPRPKLHPRP | -0.0772
143 | RRIRKRPPRLPRPRPRPFCPPRP | 0.0562
144 | RRIRHRPPRLPRPRPRPPLVPRP | 0.0953
145 | RRIRERPPRLPRPRPRPQYYPRP | -0.676
146 | RRIRPRPPRLPRPRPRPYMIPRP | -0.398
147 | RRIRLRPPRLPRPRPRPNYKPRP | -0.752
148 | RRIRQRPPRLPRPRPRPGWFPRP | 0.209
149 | RRIRSRPPRLPRPRPRPRAFPRP | 0.304
150 | RRIRSRPPRLPRPRPRPTCPPRP | 0.0454
